Kd data for 20 molecules are collected here from US20230365642A1 (published 2023).

One test has as its target MDNA109-Alb (2nd Gen.). Nature of the test: BLI.
A further test concerns the target MDNA109 (1st Gen.). Nature of the test: BLI. Background: In BLI a coated tip is dipped into the sample, and binding shifts an interference pattern.
The target of test [1] is T1, IL13Rα2 Protein, Human, Recombinant, His Tag (human, UniProt Q14627 27-343).
T1 chain: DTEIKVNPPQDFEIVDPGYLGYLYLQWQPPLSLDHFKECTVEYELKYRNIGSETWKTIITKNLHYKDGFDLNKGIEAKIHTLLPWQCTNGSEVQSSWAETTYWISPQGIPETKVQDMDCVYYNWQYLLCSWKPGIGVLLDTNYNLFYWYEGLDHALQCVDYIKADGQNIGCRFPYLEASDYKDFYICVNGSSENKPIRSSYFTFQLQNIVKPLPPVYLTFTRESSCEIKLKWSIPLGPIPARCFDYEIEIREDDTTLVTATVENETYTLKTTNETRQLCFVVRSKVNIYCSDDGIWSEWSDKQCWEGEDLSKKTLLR
Nature of the test: SPR; kinetic. (SPR reads the build-up and loss of mass on a sensor chip optically.)

Test [2] deals with T2, IL13Rα Protein, Human, Recombinant, His Tag (human IL13Rα1) (human, UniProt P78552 22-343).
T2 chain: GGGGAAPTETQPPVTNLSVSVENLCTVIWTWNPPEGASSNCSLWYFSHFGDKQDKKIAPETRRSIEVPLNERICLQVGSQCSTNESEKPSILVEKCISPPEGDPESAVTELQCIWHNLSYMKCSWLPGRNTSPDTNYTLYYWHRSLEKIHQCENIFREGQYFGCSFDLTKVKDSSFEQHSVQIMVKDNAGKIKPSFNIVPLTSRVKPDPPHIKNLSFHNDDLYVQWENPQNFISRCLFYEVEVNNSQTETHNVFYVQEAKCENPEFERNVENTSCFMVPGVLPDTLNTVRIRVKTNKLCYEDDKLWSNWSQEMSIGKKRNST
Nature of the test: SPR; equilibrium.

In test [3] the target is T2, IL13Rα Protein, Human, Recombinant, His …. Nature of the test: SPR; kinetic.
For test [4], the target named is T1, IL13Rα2 Protein, Human, Recombinant, …. Nature of the test: SPR; equilibrium.
Another test addresses T3, IL2R alpha (CD25) (UniProt P01589 22-213).
T3 chain: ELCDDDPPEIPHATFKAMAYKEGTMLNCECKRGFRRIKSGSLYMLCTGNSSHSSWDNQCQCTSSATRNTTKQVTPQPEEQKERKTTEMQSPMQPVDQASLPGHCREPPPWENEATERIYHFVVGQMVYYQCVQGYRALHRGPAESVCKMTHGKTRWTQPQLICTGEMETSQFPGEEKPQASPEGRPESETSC
Nature of the test: BLI.

The next test deals with T4, IL2R beta (CD122) (UniProt P14784 27-239).
T4 chain: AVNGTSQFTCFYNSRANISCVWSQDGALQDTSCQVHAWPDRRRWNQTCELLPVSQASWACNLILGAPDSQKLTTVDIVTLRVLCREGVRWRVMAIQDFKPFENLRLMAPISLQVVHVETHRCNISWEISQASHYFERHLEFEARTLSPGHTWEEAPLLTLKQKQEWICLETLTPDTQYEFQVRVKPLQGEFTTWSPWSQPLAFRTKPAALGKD
Nature of the test: BLI.

The target in another test is MDNA19 (3rd Gen.). Nature of the test: BLI.

Where a chain is given by its changes, count along the chain named.

B1: CD25 (IL-2Rα) (receptor)
chain: T3 chain
On to B1, for which the figures for the Kd with MDNA109-Alb (2nd Gen.) and in the test with MDNA109 (1st Gen.) were 56 nM and 26 nM, respectively.

B2: C12 (protein)
chain: PGPVPPSTAHRELIEELVNITQNQKAPLCNGSMVWSINLTAGMYCAALESLINVSGCSAIEKTQRMLSGFCPHKVSAGQFSSLHVMDSRIEVAQFVKDLLNHLRALFKEGQFN
Take B2: the Kd (commonly a measure of binding affinity in units of concentration) is 0.053 nM in test [1] and 15000 nM in test [2].

B3: C2 (protein)
chain: B2 chain with H10D, R11I, V18I, M86K, D87K, S88T, N101L, R104K, A105K
For B3, the Kd in [1] came out at 0.025 nM; in [2], 4000 nM.

B4: B6 (protein)
chain: B2 chain with H10T, V18I, M86R, D87G, R89K, N101Y, A105T, K108R
In the case of B4, the dissociation constant (Kd) in [3] was determined as 5.9 nM; in test [4] it was 53 nM.

B5: C10 (protein)
chain: B2 chain with R11L, V18I, S88T, N101L, R104K, A105K
B5: the equilibrium dissociation constant (Kd) in test [1] was 5 nM; in [2] it was 264 nM.

B6: C7 (protein)
chain: B2 chain with H10L, R11S, I14M, M86R, R89K, R104K
With B6, the Kd is 0.272 nM in test [1] and 35000 nM in test [2].

B7: C3 (protein)
chain: B2 chain with H10A, M86T, D87G, S88K
Turning to B7, the Kd in test [1] was 0.379 nM; in [2] it was 16000 nM.

B8: C4 (protein)
chain: B2 chain with H10V, M86R, S88T, R104K, A105E, K108T
In the case of B8, the results for the dissociation constant (Kd) in test [1] and in test [2] were 0.393 nM and 36000 nM, respectively.

B9: C11 (protein)
chain: B2 chain with M86T, D87G, S88R, R89K, N101L, R104K, A105K
Consider B9, for which the Kd came to 0.0001 nM in test [1] and 3600 nM in test [2].

B10: C9 (protein)
chain: B2 chain with R11L, V18I, M86K, D87E, S88T, R104K, A105T
In the case of B10, the Kd is 0.259 nM in test [1] and 31000 nM in test [2].

B11: B2 (protein)
chain: B2 chain with H10L, V18I, M86T, D87G, R89K, N101Y, K108R
As for B11, the figures for the Kd in test [3] and in test [1] were 0.275 nM and 1.5 nM, respectively.

B12: A5 (protein)
chain: B2 chain with H10L, R11I, V18I, M86K, D87G, R89K, N101H, F107M, K108R
In the case of B12, the Kd worked out at 2.94 nM in test [3] and 50 nM in test [4].

B13: A6 (protein)
chain: B2 chain with H10I, V18L, D87K, R89K, N101H, K108R
Regarding B13, the Kd worked out at 1.9 nM in [3] and 0.267 nM in test [1].

B14: A11 (protein)
chain: B2 chain with H10V, V18I, M86R, D87S, R89K, N101F, A105T, K108R
B14: the dissociation constant (Kd) in test [3] was determined as 0.084 nM; in [1], 0.391 nM.

B15: A7 (protein)
chain: B2 chain with H10I, V18I, M86R, D87G, R89K, N101H, K108R
Take B15: the dissociation constant Kd was found to be 1.18 nM in [3] and 0.218 nM in test [1].

B16: B4 (protein)
chain: B2 chain with H10L, R11S, V18I, M86K, D87G, R89M, N101Y, A105T, K108R
As for B16, the Kd in [3] is 18 nM; in [4] it was 108 nM.

B17: D7 (protein)
chain: B2 chain with H10A, V18F, M86K, D87K, S88T, N101I, A105K
As for B17, the dissociation constant Kd came out at 0.003 nM in test [1] and 4100 nM in test [2].

B18: A8 (protein)
chain: B2 chain with H10I, V18I, M86R, D87S, N101H, A105T, K108R
Take B18: the results for the dissociation constant (Kd) in test [3] and in test [1] were 2.06 nM and 0.263 nM, respectively.

B19: MDNA109-Fc (2nd Gen.) (protein)
chain: APTSSSTKKTQLQLEHLLLDLQMILNGINNYKNPKLTRMLTFKFYMPKKATELKHLQCLEEELKPLEEVLNLAQSKNFHFDPRDVVSNINVFVLELKGSETTFMCEYADETATIVEFLNRWITFCQSIISTLTGGGGSGGGGSGGGGSDKTHTCPPCPAPELLGGPSVFLFPPKPKDTLMISRTPEVTCVVVDVSHEDPEVKFNWYVDGVEVHNAKTKPREEYASTYRVVSVLTVLHQDWLNGKEYKCKVSNKALPAPIEKTISKAKGQPREPQVYTLPPSREEMTKNQVSLTCLVKGFYPSDIAVEWESNGQPENNYKTTPPVLDSDGSFFLYSKLTVDKSRWQQGNVFSCSVMHEALHNHYTQKSLSLSPGK
On to B19, for which the Kd with IL2R alpha (CD25) was 14 nM; with IL2R beta (CD122), 2.7 nM.

B20: CD122 (IL-2Rβ) (receptor)
chain: T4 chain
Take B20: the figures for the Kd in the test with MDNA19 (3rd Gen.), in the test with MDNA109-Alb (2nd Gen.) and with MDNA109 (1st Gen.) were 2.1 nM, 3.5 nM and 1.8 nM, respectively.
